Data on one molecule can be found in patent publication US20060073149A1 (published 2006).

The target of this experiment is T1, Soluble Aβ 1-40 (UniProt P05067 672-711).
T1 construct: domain: Aβ 1-40
Kind of experiment: SPR (BIAcore), alternate method: antibody captured on protein A or A/G, Aβ 1-40 in flow, 5 h dissociation, 1:1 model with mass transfer; alternate method: antibody captured on protein A or A/G, 5 h dissociation.

Description: Protein A or protein A/G is immobilized via amine coupling to flow cells 1 and 2 of a B1 or CM5 sensor chip (BIAcore). The test antibody is then captured in flow cell 2 at desired levels (usually a 10-60 second injection of antibody) and 5 minutes is allowed for the antibody to stabilize. […] Each concentration is injected over the surface for 5 minutes at a flow rate of 50 μL/min. […] Aβ 1-40 and antibody are then eluted from both flow cells with a 40 second injection of glycine (pH 1.5). The signal is allowed to stabilize for 2 minutes before the next cycle. The data from flow cell 1 is subtracted from flow cell 2 to account for any bulk shifts due to buffer differences or non-specific binding to the sensor chip or protein A. The various concentrations are injected randomly and each concentration is run in duplicate. Two 0 nM runs are used to control for any dissociation of antibody from the protein A or A/G capture surface. The data is analyzed using the Biaevalution software. A 1:1 model with mass transfer and a local Rmax is used as the best fit for the data.

B1: humanized 266 antibody (antibody, human IgG1, kappa, V domains shown)
VH: EVQLVESGGGLVQPGGSLRLSCAASGFTFSRYSMSWVRQAPGKGLELVAQINSVGNSTYYPDTVKGRFTISRDNAKNTLYLQMNSLRAEDTAVYYCASGDYWGQGTLVTVSS
VL: DVVMTQSPLSLPVTLGQPASISCRSSQSLIYSDGNAYLHWFLQKPGQSPRLLIYKVSNRFSGVPDRFSGSGSGTDFTLKISRVEAEDVGVYYCSQSTHVPWTFGQGTKVEIKR
One may read the Kd as the constant that tells how readily two partners part at equilibrium. Read a low Kd as tighter binding. Molecule B1 gave a Kd of 0.4 nM.
